In publication PMC8561398, “The Histidine Ammonia Lyase of Trypanosoma cruzi Is Involved in Acidocalcisome Alkalinization and Is Essential for Survival under Starvation Conditions” (mBio, 2021) one finds kcat data, which are given here for 1 protein.

Substrate in this data set: N[C@@H](Cc1c[nH]cn1)C(=O)O
Kind of data set: purified protein. The class given is biochemical, Trypanosoma cruzi. To be noted: 100 mM Tris-HCl pH 8.8, 0.1 mM MnCl2, 1.7 mM reduced glutathione, 30°C, L-histidine 0.2 to 5 mM, four catalytic sites considered.

B1: 6×His-HAL (rHAL; histidine ammonia lyase) (Trypanosoma cruzi strain CL Brener) (protein)
chain: MRVILDGCSLTPDVLYALGYEKGATIEISDEAVARITAARAVIDKIVNDRQTVYGINTGFGKFESTIIPPHQLEELQLNLIRSHSACVGEPLTPERARMMLALRVNVLCKGHSGIRLETVQKYVKAFNAGVVPYIPEQGTVGASGDLGPLSHLALGMLGEGLLATLNNKKFRDAGSVLRELGVEPITLAAKEGLALINGTQFISALGAEAVVRARKIARLADVALAMSHEALRATNSTLNPDIHRVRPHKGQQLVAQRLRALLHSEEYPSMINESHVNCGRVQDAYSIRCAPQVHGISNEVIEWVYGILTTELNCATDNPLVFPDGVKKVVSGGNFHGEYPAKALDMLAIGVHELGNISERRIERLNNPTLSRLPAFLVKNGGLNSGFMIAHCTAAALVSENKVYCHPASADSISTSAAQEDHVSMGGFSARKAIKVVENVERIIAIELLGACQGIDLLRPLRTTEPMEKVWSLVRSVSPPWEEDRVINTDIDNVTKLLRSGAVWKTVKPYVPEEARFLGVLTVKKPFELKSKM
notes: four catalytic sites considered; Q4E133 used for alignment; locus tag from YC6
Consider B1, for which the turnover number (kcat) was 9.027 to 11.7 s⁻¹.

For orientation: kcat means the maximal rate divided by the concentration of active sites.
